Where two headings read alike, the source gives them in different places.

The chains are these.
B3: MukB (wild type) (natural protein, E. coli, UniProt P22523 1-1486, looked up)
chain: MIERGKFRSLTLINWNGFFARTFDLDELVTTLSGGNGAGKSTTMAAFVTALIPDLTLLHFRNTTEAGATSGSRDKGLHGKLKAGVCYSMLDTINSRHQRVVVGVRLQQVAGRDRKVDIKPFAIQGLPMSVQPTQLVTETLNERQARVLPLNELKDKLEAMEGVQFKQFNSITDYHSLMFDLGIIARRLRSASDRSKFYRLIEASLYGGISSAITRSLRDYLLPENSGVRKAFQDMEAALRENRMTLEAIRVTQSDRDLFKHLISEATNYVAADYMRHANERRVHLDKALEFRRELHTSRQQLAAEQYKHVDMARELAEHNGAEGDLEADYQAASDHLNLVQTALRQQEKIERYEADLDELQIRLEEQNEVVAEAIERQQENEARAEAAELEVDELKSQLADYQQALDVQQTRAIQYNQAIAALNRAKELCHLPDLTADCAAEWLETFQAKELEATEKMLSLEQKMSMAQTAHSQFEQAYQLVVAINGPLARNEAWDVARELLREGVDQRHLAEQVQPLRMRLSELEQRLREQQEAERLLADFCKRQGKNFDIDELEALHQELEARIASLSDSVSNAREERMALRQEQEQLQSRIQSLMQRAPVWLAAQNSLNQLSEQCGEEFTSSQDVTEYLQQLLEREREAIVERDEVGARKNAVDEEIERLSQPGGSEDQRLNALAERFGGVLLSEIYDDVSLEDAPYFSALYGPSRHAIVVPDLSQVTEHLEGLTDCPEDLYLIEGDPQSFDDSVFSVDELEKAVVVKIADRQWRYSRFPEVPLFGRAARESRIESLHAEREVLSERFATLSFDVQKTQRLHQAFSRFIGSHLAVAFESDPEAEIRQLNSRRVELERALSNHENDNQQQRIQFEQAKEGVTALNRILPRLNLLADDSLADRVDEIRERLDEAQEAARFVQQFGNQLAKLEPIVSVLQSDPEQFEQLKEDYAYSQQMQRDARQQAFALTEVVQRRAHFSYSDSAEMLSGNSDLNEKLRERLEQAEAERTRAREALRGHAAQLSQYNQVLASLKSSYDTKKELLNDLQRELQDIGVRADSGAEERARIRRDELHAQLSNNRSRRNQLEKALTFCEAEMDNLTRKLRKLERDYFEMREQVVTAKAGWCAVMRMVKDNGVERRLHRRELAYLSADDLRSMSDKALGALRLAVADNEHLRDVLRMSEDPKRPERKIQFFVAVYQHLRERIRQDIIRTDDPVEAIEQMEIELSRLTEELTSREQKLAISSRSVANIIRKTIQREQNRIRMLNQGLQNVSFGQVNSVRLNVNVRETHAMLLDVLSEQHEQHQDLFNSNRLTFSEALAKLYQRLNPQIDMGQRTPQTIGEELLDYRNYLEMEVEVNRGSDGWLRAESGALSTGEAIGTGMSILVMVVQSWEDESRRLRGKDISPCRLLFLDEAARLDARSIATLFELCERLQMQLIIAAPENISPEKGTTYKLVRKVFQNTEHVHVVGLRGFAPQLPETLPGTDEAPSQAS

The target of series [1] is B3. Briefly: co-purification, SDS-PAGE with Coomassie staining.
Series [2] addresses B3. The series is described as follows: cross-linking.
The series “cross-linking” concerns the molecule itself. Briefly: cross-linking.
The target in series [3] is B3. The series is described as follows: cross-linking. This is another data set of the same source.

B1: acyl carrier protein (AcpP) found in MukB preparations (natural protein, E. coli, UniProt P0A6A8 1-78, looked up)
chain: MSTIEERVKKIIGEQLGVKQEEVTNNASFVEDLGADSLDTVELVMALEEEFDTEIPDEEAEKITTVQAAIDYINGHQA
Regarding B1, the “stoichiometry N” value with MukB (wild type) [1] is 1 AcpP:MukB.

B2: MukF (wild type) (natural protein, E. coli, UniProt P60293 1-440, looked up)
chain: MSEFSQTVPELVAWARKNDFSISLPVDRLSFLLAVATLNGERLDGEMSEGELVDAFRHVSDAFEQTSETIGVRANNAINDMVRQRLLNRFTSEQAEGNAIYRLTPLGIGITDYYIRQREFSTLRLSMQLSIVAGELKRAADAAEEGGDEFHWHRNVYAPLKYSVAEIFDSIDLTQRLMDEQQQQVKDDIAQLLNKDWRAAISSCELLLSETSGTLRELQDTLEAAGDKLQANLLRIQDATMTHDDLHFVDRLVFDLQSKLDRIISWGQQSIDLWIGYDRHVHKFIRTAIDMDKNRVFAQRLRQSVQTYFDEPWALTYANADRLLDMRDEEMALRDEEVTGELPEDLEYEEFNEIREQLAAIIEEQLAVYKTRQVPLDLGLVVREYLSQYPRARHFDVARIVIDQAVRLGVAQADFTGLPAKWQPINDYGAKVQAHVIDKY
Regarding B2, in the series with MukB (wild type) [2], the binding result is recorded as “binds”.

For the molecule B3, the binding result in the series “cross-linking” is “binds”.

B4: ParC subunit of topoisomerase IV (natural protein, E. coli, UniProt P0AFI2 1-752, looked up)
chain: MSDMAERLALHEFTENAYLNYSMYVIMDRALPFIGDGLKPVQRRIVYAMSELGLNASAKFKKSARTVGDVLGKYHPHGDSACYEAMVLMAQPFSYRYPLVDGQGNWGAPDDPKSFAAMRYTESRLSKYSELLLSELGQGTADWVPNFDGTLQEPKMLPARLPNILLNGTTGIAVGMATDIPPHNLREVAQAAIALIDQPKTTLDQLLDIVQGPDYPTEAEIITSRAEIRKIYENGRGSVRMRAVWKKEDGAVVISALPHQVSGARVLEQIAAQMRNKKLPMVDDLRDESDHENPTRLVIVPRSNRVDMDQVMNHLFATTDLEKSYRINLNMIGLDGRPAVKNLLEILSEWLVFRRDTVRRRLNYRLEKVLKRLHILEGLLVAFLNIDEVIEIIRNEDEPKPALMSRFGLTETQAEAILELKLRHLAKLEEMKIRGEQSELEKERDQLQGILASERKMNNLLKKELQADAQAYGDDRRSPLQEREEAKAMSEHDMLPSEPVTIVLSQMGWVRSAKGHDIDAPGLNYKAGDSFKAAVKGKSNQPVVFVDSTGRSYAIDPITLPSARGQGEPLTGKLTLPPGATVDHMLMESDDQKLLMASDAGYGFVCTFNDLVARNRAGKALITLPENAHVMPPVVIEDASDMLLAITQAGRMLMFPVSDLPQLSKGKGNKIINIPSAEAARGEDGLAQLYVLPPQSTLTIHVGKRKIKLRPEELQKVTGERGRRGTLMRGLQRIDRVEIDSPRRASSGDSEE
As for B4, the binding result with MukB (wild type) [3] is “binds”.

Values taken from paper doi:10.1101/2022.03.08.483475 (bioRxiv, 2022).
